Results on one substance are retold here after patent US20120324606A1.

Assay [1] has as its target BBMV proteins (receptor binding sites) in brush border membrane vesicles from fall armyworm (FAW; Spodoptera frugiperda) larval midgut. The assay can be described thus: heterologous competition: unlabeled Cry1Ab against 0.5 nM 125I Cry1Be on FAW BBMVs; reference is homologous Cry1Be.
Assay [2] shares this target. The experiment in a line: heterologous competition: unlabeled Cry1Ab against 0.5 nM 125I Cry1Be on FAW BBMVs.
The target is the same in assay [3]. The experiment in a line: homologous competition: unlabeled Cry1Ab against 0.5 nM 125I Cry1Ab on FAW BBMVs.
Assay [4] has as its target BBMV proteins (receptor binding sites) in brush border membrane vesicles from European corn borer (ECB; Ostrinia nubilalis) larval midgut. The assay can be described thus: homologous competition: unlabeled Cry1Ab against 0.5 nM 125I Cry1Ab on ECB BBMVs.

On to “Cry1Ab insecticidal protein (purified truncated Cry toxin) (from UniProt P0A370 29-612) (ligand)”, for which, in assay [1], the fold lower affinity to compete for the binding of Cry1Be came to 500 fold. The values for the IC50 in assay [2], in assay [3] and in assay [4] were 1000 nM, 0.3 nM and 0.5 nM, respectively.
